# Source: the supplement of paper PMC9170038
# System: MS2 coat protein
# Experiment: apparent KD of MS2 coat protein; designed switch direction (-1 OFF switch, 1 ON switch): 1; higher = weaker reporter binding
# In short: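 Transcription of designed RNA switches on Illumina chips was done by stalled E. coli RNA polymerase. SNAP-549-labelled MS2 coat protein was then titrated in doubling steps from 0.7 or 1.5 nM to 3 µM, with steps of 0.8–1.5 h at the lowest and 10–20 min at the highest concentration. The per-design median over clusters of curve-fitted normalised fluorescence is reported as apparent KD.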
# [1] = Eterna round: R95, input ligand: FMN 200 uM
# [2] = Eterna round: R95, input ligand: microRNA oligo, concentration not stated
# [3] = Eterna round: R95, input ligand: none
# [4] = input ligand: microRNA oligo, concentration not stated
Sequence,apparent KD of MS2 coat protein [1] [nM],apparent KD of MS2 coat protein [2] [nM],apparent KD of MS2 coat protein [3] [nM],apparent KD of MS2 coat protein (input ligand: FMN 200 uM) [nM],apparent KD of MS2 coat protein [4] [nM],apparent KD of MS2 coat protein (input ligand: none) [nM]
CGUCCGGCCUGUGCUGGCCGGUGGCUUGUACAUGAGGAUCACCCAUGUUCUUGUGCUGGCUUUUUGCUCGUCGUGUG [salish99_mir208a_r3_023] (puzzle: Sensor for hsa-mir-208a),32.6,19.8,37.9,–,–,–
CGUCGCUGUCGAGAGGAUAUGCGGUGAUGGACAUGAGGAUCACCCAUGUUAGCGAUAGUAUCACGGUAGAAGGCUCUUACGACUG [Soteed Omei mod 26] (puzzle: Same State 2),–,26.7,–,–,–,–
"CGUCGUUUGAUAGGAUAUCGCUAUACAUGAGGAUCACCCAUGUUUACCACGCUGGUUUUUCAUACCGAGAAGGAUUCUGAUGUU [salish99_SSNG02_r04_016] (Eterna round: R96, puzzle: Same State NG 2)",–,–,–,49.8,42.4,44.1
"CGUCGUUUGAUAGGAUAUCGCUUUACAUGAGGAUCACCCAUGUUUACCUCGCUGGUUUUUCUUUCCGAGAAGGAUUCUGAUGUU [salish99_SSNG02_r04_030] (Eterna round: R96, puzzle: Same State NG 2)",–,–,–,43.4,31.6,40.4
"CGUGAACAUGAGGAUCACCCAUGUGAAAAACGUAGAGGAUAUGUCACAUGAGUGUAAAAGACAGAAGGCUAUCGUG [Mod 2 of Round 1 starryjess' Mod pf Nando] (Eterna round: R96, puzzle: Same State 1)",–,–,–,35.4,172,243
"CGUUCACAUGAGGAUCACCCAUGUCAGAUUUGGUCAGGAUAUGGUCGGCUUCCGCUAUUGCCAGAAGGGACUGUUG [JR_SS001_Sub705] (Eterna round: R96, puzzle: Same State 1)",–,–,–,24.3,28.8,35.2
"CUACAGGCCAGAGGAUAUGGGAAAGGAAGUGUACCAGAAGGUUGGCCUCCUGAGUACAUGAGGAUCACCCAUGUAGAAAGGCGA [PowerStrip SSNG 1.6] (Eterna round: R96, puzzle: Same State NG 1)",–,–,–,143,41.6,79.9
"CUACGCGCCGCAGGAUAUGCCGACCCGUGUUGAGCAGAAGGGCGAAACAUGAGGAUCACCCAUGUUGAAAGAGCGCAAAAUUAA [Erteerte] (Eterna round: R96, puzzle: Same State NG 1)",–,–,–,23.5,16.4,30.1
CUCAAAACAAGUUGCAGUGUUCGUCUUUAACAUGAGGAUCACCCAUGUAAUAACCCAGUGGAAGCGCUCGGGCCACC [Ineson] (puzzle: Sensor for hsa-mir-208a),30.2,–,28.5,–,–,–
CUCAAAACAAGUUGCAGUGUUCGUCUUUAACAUGAGGAUCACCCAUGUAAUAGCCCAGUAGAAGCGCUCGGGCCACC [Ceedbeen] (puzzle: Sensor for hsa-mir-208a),34.5,26.4,31.9,–,–,–
CUCAAACAUGAGGAUCACCCAUGUGUUGUCAUGGGAGGAUAUCCCAGUUCGUUGUCGUCGGGAGAAGGCCUAUGUC [× ×•×ª×• ×ž×“×™× ×” × ×—×ª-14] (puzzle: Same State 1),–,55.9,–,–,–,–
CUCAAACAUGAGGAUCACCCAUGUGUUGUCGUGGGAGGAUAUCCCGGUUCGGUGGCGUCGGGAGAAGGCCUAUGUC [× ×•×ª×• ×ž×“×™× ×” × ×—×ª-17] (puzzle: Same State 1),–,54.8,–,–,–,–
"CUCACUUGGGUAGGAUAUCUAGGAUAUGGGAAAGACUAAGUCUGUAGGUCACCUAACCCAGAUGGAGAGAAGGACCCAACACUC [pwkr ssNG2 2FMN + F9.38] (Eterna round: R96, puzzle: Same State NG 2)",–,–,–,57.9,2.64,33.1
"CUGAAAUGUCAAGGAUAUCACGUCGAUUAGACGUGAGAAGGUGAUCUGCACAUGAGGAUCACCCAUGUGUUACAUGGAAUUCAG [Brourd's SSNG1/1-A2 mod 13] (Eterna round: R96, puzzle: Same State NG 1)",–,–,–,166,406,503
"CUGAGAUGUCAAGGAUAUCACGUCGAUUAGACGUGAGAAGGUGAUCUGCACAUGAGGAUCACCCAUGUGUUACAUGGAAUUCAG [Brourd's SSNG1/1-A2 mod 12] (Eterna round: R96, puzzle: Same State NG 1)",–,–,–,567,278,889
"CUGAGCAAUCAAGGAUAUCACGUCGAAUAGACGUGAGAAGGUGAUCAUAACAUGAGGAUCACCCAUGUAUUACAUGAAGCUCAG [SSNG1/1-A1] (Eterna round: R96, puzzle: Same State NG 1)",–,–,–,512,399,1280
"CUGAGCAAUCAAGGAUAUCACGUCGAUUAGACGUGAGAAGGUGAUCAUAACAUGAGGAUCACCCAUGUAUUACAUGGAGCUCAG [Brourd's SSNG1/1-A2 mod 1] (Eterna round: R96, puzzle: Same State NG 1)",–,–,–,533,124,397
"CUGAGCAAUCAAGGAUAUCACGUCGAUUAGACGUGAGAAGGUGAUCAUUACAUGAGGAUCACCCAUGUGUUACAUGGAGCUCAG [Brourd's SSNG1/1-A2 mod 3] (Eterna round: R96, puzzle: Same State NG 1)",–,–,–,395,54.9,159
"CUGAGCAGUCAAGGAUAUCACGUCGAUUAGACGUGAGAAGGUGAUUAAUACAUGAGGAUCACCCAUGUAAUACAUGAAGCUCAG [SSNG1/11-A2] (Eterna round: R96, puzzle: Same State NG 1)",–,–,–,13.8,38.4,41.9
CUGCAACAUGAGGAUCACCCAUGUAACCCGGUUACAGGAUAUGUGAUGGUGAUCGACAUGACAGAAGGGUGAUUGG [Indiinbi] (puzzle: Same State 1),41.5,21.5,29.6,–,–,–
"CUGCACCGUGGAGGAUAUGGGCUGAGGCCAGGACAACCCUGGCCAACAUGAGGAUCACCCAUGUCCCAGAAGGCCACAGUGCUA [Zaenmaxe] (Eterna round: R96, puzzle: Same State NG 2)",–,–,–,15.1,86.7,112
"CUGCGUAACACAGGAUAUACCUCCGCAAGGAACGUAGAAGGGUGAGUAGCAGACAUGAGGAUCACCCAUGUAAAGGCCAAGGCC [Enqudiso] (Eterna round: R96, puzzle: Same State NG 1)",–,–,–,48.4,95.7,98
CUGCUACAUGAGGAUCACCCAUGUUGGAGUGAUGCAGGAUAUGUGGGACCAGAAGAUGAAACAGAAGGGCAAAGAA [JR_SS!_Sub005] (puzzle: Same State 1),98.4,119,97.6,–,–,–
CUGCUACAUGAGGAUCACCCAUGUUGGAGUGAUGCAGGAUAUGUGUGACCAGAAGAUGAAACAGAAGGGCAAAGAA [JR_SS!_Sub004] (puzzle: Same State 1),96.2,75.7,101,–,–,–
"CUGCUCGUGUGAGGAUAUGCCGCCGUUUCGGCUGCAGAAGGUGCUACGUUACAUGAGGAUCACCCAUGUCUCUGUUGUUUCGUU [salish99_SSNG1_r04_947] (Eterna round: R96, puzzle: Same State NG 1)",–,–,–,20.2,19,22.8
CUGUGUUGCGGGCAGGAUAUGUAUUGGGAUACAUGAGGAUCACCCAUGUGCGGGUGUUUCACCCGACAGAAGGGCCAAUCGCGAC [JL-ss2-3.22 ViennaUCT mod] (puzzle: Same State 2),200,370,472,–,–,–
"CUUAACAGAGGAGGAUAUGCAGAGGAUCACCCUGUAGAAGGCCACAGAGGAGGAUAUGCAGAGGAUCACCCUGUAGAAGGCCAC [pwkr ssNG DX.8] (Eterna round: R96, puzzle: Same State NG 1)",–,–,–,622,143,280
"CUUCGGAAGCGAGGAUAUGCAGAGGAUCACCCUGCAGAAGGCGCAAAAGCGAGGAUAUGCAGAGGAUCACCCUGCAGAAGGCGC [pwkr ssNG DX.34] (Eterna round: R96, puzzle: Same State NG 1)",–,–,–,43,15.7,32.4
